# Assay results taken from patent US20260066079A1 (published 2026).
# Substitutions are numbered along the chain they refer to.
# T1: TL1A in human blood (endogenous) (human, UniProt O95150 72-251, limits assumed)
# T1 sequence (looked up): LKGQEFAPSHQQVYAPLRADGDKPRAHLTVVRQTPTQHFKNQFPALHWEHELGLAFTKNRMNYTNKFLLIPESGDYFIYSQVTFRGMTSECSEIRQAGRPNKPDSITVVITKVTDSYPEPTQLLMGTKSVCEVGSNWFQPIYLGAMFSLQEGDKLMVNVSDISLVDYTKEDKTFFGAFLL
# B1: A147 (antibody, human IgG1, V domains shown)
# VH: QVQLVQSGAEVKKPGASVKVSCKASGFDIQDTYMHWVKQRPGQGLEWMGRIEPASGHIKYDPKFQGRVTMTRDTSTSTVYMELSSLRSEDTAVYYCARSGGLPDWWGQGTTVTVSS
# VL: EIVLTQSPGTLSLSPGERATLSCRASSSVSYMYWYQQKPGQAPRPLIYATSNLASGIPDRFSGSGSGTDFTLTISRLEPEDFAVYYCQQWEGNPRTFGGGTKLEIK
# B2: A220 (antibody, human IgG1, V domains shown)
# VH: B1 VH with E52D, I58T, G66V, V79A, M81L, W105V
# VL: B1 VL with L46W
# B3: A217 (antibody, human IgG1, V domains shown)
# VH: B1 VH with E52D, I58T, G66V, M70I, W105V
# VL: B1 VL
# B4: A212 (antibody, human IgG1, V domains shown)
# VH: QVQLVQSGAEVKKPGASVKVSCKASGFDIQDTYMHWVRQRPGQGLEWIGRIDPASGHTKYDPKFQVRATITTDTSTSTAYLELSSLRSEDTAVYYCARSGGLPDVWGQGTTVTVSS
# VL: B1 VL
# B5: A219 (antibody, human IgG1, V domains shown)
# VH: B4 VH with R38K, I48M, A68V, T72R, A79V
# VL: B1 VL
# B6: A213 (antibody, human IgG1, V domains shown)
# VH: B4 VH with I48M, A68V, A79V, L81M
# VL: B1 VL
# Target: T1, TL1A in human blood (endogenous)
# Test: cell-based or functional assay
% Inhibition at 1 nM Ig (inhibition of interferon gamma release in human blood),% Inhibition at 10 nM Ig (inhibition of interferon gamma release in human blood),Binder
51.3%,72.4%,B1
36.9%,63.2%,B2
46%,72.2%,B3
46.8%,71.2%,B4
59.8%,75.2%,B5
48.6%,69.8%,B6
